Test results published in patent US20260102485A1 (CEDARS SINAI MEDICAL CENTER, published 2026).
Like-named read-outs stand apart in the source and are kept apart here.

Columns and labels:
[1] = target: T1, human TL1A (hTL1A) antigen (human, UniProt O95150 58-251, limits assumed); assay: SPR, multi-cycle, antibody as ligand, TL1A analyte
T1 construct: also called TNFSF15
T1 sequence (looked up): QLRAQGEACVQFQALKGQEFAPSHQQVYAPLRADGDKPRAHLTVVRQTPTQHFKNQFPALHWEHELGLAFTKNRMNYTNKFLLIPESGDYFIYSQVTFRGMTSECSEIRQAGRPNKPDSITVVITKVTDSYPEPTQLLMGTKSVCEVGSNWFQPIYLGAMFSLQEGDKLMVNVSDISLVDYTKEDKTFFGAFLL

[2] = target: T1, human TL1A (hTL1A) antigen; assay: SPR, affinity ranking, clone as ligand
murine TL1A = target: T2, murine TL1A (murine, UniProt Q5UBV8 94-252, limits assumed); assay: MSD electrochemiluminescence plate assay, antibody titrated on plates coated with murine TL1A
T2 sequence (looked up): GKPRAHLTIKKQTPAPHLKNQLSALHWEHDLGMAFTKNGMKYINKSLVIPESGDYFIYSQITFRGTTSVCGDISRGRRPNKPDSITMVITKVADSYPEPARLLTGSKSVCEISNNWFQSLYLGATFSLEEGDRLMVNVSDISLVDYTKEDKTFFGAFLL
Method: Anti-human TL1A monoclonal antibodies 9E12E5 and 5C3D11 neutralize the activity of human TL1A in vitro. […] MSD plates were coated with murine TL1A and incubated with various concentrations of 5C3D11 or 9E12E5 to evaluate the ability of the antibody to recognize murine TL1A, as shown in FIG. 6. Human TL1A was included as a positive control. 5C3D11 recognizes murine TL1A in a concentration dependent manner. The binding profile of both the 5C3D11 and 9E12E5 antibodies were assessed using a TL1A transfected HEK293 cell line and compared to the untransfected parental HEK293 cell line. Fluorescent staining of the anti-TL1A antibodies in TL1A expressing HEK293 cells is compared to the untransfected parental HEK293 cells, as shown in FIG. 7.

[3] = target: T1, human TL1A (hTL1A) antigen; assay: cell-based or functional assay
[4] = target: T1, human TL1A (hTL1A) antigen; assay: Biacore (SPR), TL1A as analyte
[5] = target: T1, human TL1A (hTL1A) antigen; assay: cell-based or functional assay; remark: listed apart in the source

Binder | kon [1] | Kd [2] | koff [2] | kon [2] | binding result (murine TL1A) | EC50, inhibition of human TL1A induced IFN-γ production (percent of IFN-γ production without inhibitor) [3] | Kd [4] | EC50, inhibition of human TL1A induced IFN-γ production (percent of IFN-γ production without inhibitor) [5]
AS12824 (antibody, V domains shown, Humanized 5C3D11 clone from a phage display library; also called 15) VH: QVQLVQSGAEVKKPGASVKVSCKASGFDICDTYMHWVKQRPGQGLEWIGRIDPASGHTKYDPKFQVRATITTDTSTSTAYLELSSLRSEDTAVYYCARSGGLPDVWGQGTTVTVSS VL: EIVLTQSPGTLSASPGERATMSCRASSSVSYMYWYQQKPGQAPRPWIYATSNLASGVPDRFSGSGSGTDYTLTISRVEPEDFAVYYCQQWSGNPRTFGGGTKLEIK | 1.07e+06 M⁻¹ s⁻¹ | 0.0163 nM | 1.69e-05 s⁻¹ | 1.03e+06 M⁻¹ s⁻¹ |  |  |  | 
AS12823 (antibody, V domains shown, Humanized 5C3D11 clone from a phage display library; also called 14) VH: QVQLVQSGAEVKKPGASVKLSCKASGFDICDTYMHWVRQRPGQGLEWIGRIDPASGHTKYDPKFQVRATMTTDTSTSTVYLELSSLRSEDTAVYYCARSGGLPDVWGQGTTVTVSS VL: EIVLTQSPGTLSLSPGERATMSCRASSSVSYMYWYQQKPGQAPRPWIYATSNLASGIPDRFSGSGSGTDFTLTISRVEPEDFAVYYCQQWSGNPRTFGGGTKLEIK | 1.11e+06 M⁻¹ s⁻¹ | 0.0424 nM | 3.66e-05 s⁻¹ | 864000 M⁻¹ s⁻¹ |  |  |  | 
AS12825 (antibody, V domains shown, Humanized 5C3D11 clone from a phage display library; also called 16) VH: QVQLVQSGAEVKKPGASVKVSCKASGFDICDTYMHWVKQAPGQGLEWMGRIDPASGHTKYDPKFQVRATMTTDTSTSTAYLELSSLRSEDTAVYYCSRSGGLPDVWGQGTTVTVSS VL: EIVLTQSPGTLSASPGERVTMSCRASSSVSYMYWYQQKPGQAPRLLIYATSNLASGVPDRFSGSGSGTDFTLTISRVEPEDFAVYYCQQWSGNPRTFGGGTKLEIK |  | 0.105 nM | 5.45e-05 s⁻¹ | 518000 M⁻¹ s⁻¹ |  |  |  | 
AS12819 (antibody, V domains shown, Humanized 5C3D11 clone from a phage display library; also called 10) VH: QVQLVQSGAEVVKPGASVKLSCKASGFDICDTYMHWVRQRPGQGLEWMGRIDPASGHTKYDPKFQVRVTMTTDTSTSTVYLELSSLRSEDTAVYYCARSGGLPDVWGQGTTVTVSS VL: EIVLTQSPGTLSLSPGERVTMSCRASSSVSYMYWYQQKPGQAPRPWIYATSNLASGVPDRFSGSGSGTDFTLTISRVEPEDFAVYYCQQWSGNPRTFGGGTKVEIK | 946000 M⁻¹ s⁻¹ | 0.0462 nM | 3.81e-05 s⁻¹ | 825000 M⁻¹ s⁻¹ |  |  |  | 
AS12816 (antibody, V domains shown, Humanized 5C3D11 clone from a phage display library) VH: QVQLVQSGAEVKKPGASVKVSCKASGFDICDTYMHWVKQRPGQGLEWIGRIDPASGHTKYDPKFQVRATITRDTSTSTAYLELSSLRSEDTAVYYCSRSGGLPDVWGQGTTVTVSS VL: EIVLTQSPGTLSASPGERVTLSCRASSSVSYMYWYQQKPGQAPRPWIYATSNLASGVPDRFSGSGSGTDFTLTISRLEPEDFAVYYCQQWSGNPRTFGGGTKLEIK | 819000 M⁻¹ s⁻¹ | 0.062 nM | 4.73e-05 s⁻¹ | 763000 M⁻¹ s⁻¹ |  |  |  | 
9E12E5 (antibody, V domains shown, Mouse hybridoma monoclonal antibody; also called 684842-6; anti-TL1A antibody 9E12E5) VH: QVHLQQSGPELVKPGASVKLSCKASGYTFTKYDINWVRQRPEQGLEWIGWIFPGDGRTDYNEKFKGKATLTTDKSSSTAYMEVSRLTSEDSAVYFCARYGPAMDYWGQGTSVTVAS VL: DVLMTQTPLSLPVSLGDQASISCRSSQTIVHSNGDTYLDWFLQKPGQSPKLLIYKVSNRFSGVPDRFSGSGSGTDFTLKISRVEAEDLGVYYCFQGSHVPYTFGGGTKLEIK |  |  |  |  | no binding (tested: 100 ng/ml) | 2.4 nM | 0.52 nM | 
5C3D11 (antibody, V domains shown, Mouse hybridoma monoclonal antibody; also called 684842-3; anti-TL1A antibody 5C3D11) VH: EVQLQQSGAELVKPGASVKLSCTASGFDIQDTYMHWVKQRPEQGLEWIGRIDPASGHTKYDPKFQVKATITTDTSSNTAYLQLSSLTSEDTAVYYCSRSGGLPDVWGAGTTVTVSS VL: QIVLSQSPAILSASPGEKVTMTCRASSSVSYMYWYQQKPGSSPKPWIYATSNLASGVPDRFSGSGSGTSYSLTISRVEAEDAATYYCQQWSGNPRTFGGGTKLEIK |  |  |  |  |  |  | 0.079 nM | 1 nM
